Test results: article doi:10.1101/790667 (bioRxiv, 2019)
* marks the point of attachment. Dansyl = CN(C)c1cccc2c(S(=O)(=O)*)cccc12

T1: human CASK PDZ domain (residues 487-572) (human, UniProt O14936 487-572)
T1 sequence (looked up): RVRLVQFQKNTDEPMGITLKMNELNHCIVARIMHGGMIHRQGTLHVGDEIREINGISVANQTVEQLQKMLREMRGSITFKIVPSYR


molecular target: T1, human CASK PDZ domain (residues 487-572); experiment: differential scanning fluorimetry

binding result | Binder
binds | Dansyl-ENQKEYFF-OH (SMILES CN(C)c1cccc2c(S(=O)(=O)N[C@@H](CCC(=O)O)C(=O)N[C@@H](CC(N)=O)C(=O)N[C@@H](CCC(N)=O)C(=O)N[C@@H](CCCCN)C(=O)N[C@@H](CCC(=O)O)C(=O)N[C@@H](Cc3ccc(O)cc3)C(=O)N[C@@H](Cc3ccccc3)C(=O)N[C@@H](Cc3ccccc3)C(=O)O)cccc12) [Caspr4 peptide (residues 1,301-1,308)]
binds | Dansyl-TKQEEFYA-OH (SMILES C[C@H](NC(=O)[C@H](Cc1ccc(O)cc1)NC(=O)[C@H](Cc1ccccc1)NC(=O)[C@H](CCC(=O)O)NC(=O)[C@H](CCC(=O)O)NC(=O)[C@H](CCC(N)=O)NC(=O)[C@H](CCCCN)NC(=O)[C@@H](NS(=O)(=O)c1cccc2c(N(C)C)cccc12)[C@@H](C)O)C(=O)O) [Syndecan1 peptide (residues 303-310)]
binds | Dansyl-NKDKEYYV-OH (SMILES CC(C)[C@H](NC(=O)[C@H](Cc1ccc(O)cc1)NC(=O)[C@H](Cc1ccc(O)cc1)NC(=O)[C@H](CCC(=O)O)NC(=O)[C@H](CCCCN)NC(=O)[C@H](CC(=O)O)NC(=O)[C@H](CCCCN)NC(=O)[C@H](CC(N)=O)NS(=O)(=O)c1cccc2c(N(C)C)cccc12)C(=O)O) [Neurexin peptide (residues 1,470-1,477)]
